Results taken from patent publication US12099068B2, “Biomarkers for graft-versus-host disease” (Incyte Corporation, priority 2018, dated 2024).

B1: CEACAM5 (protein, UniProt P06731 35-685, looked up)
Cell adhesion molecule CEACAM5: KLTIESTPFNVAEGKEVLLLVHNLPQHLFGYSWYKGERVDGNRQIIGYVIGTQQATPGPAYSGREIIYPNASLLIQNIIQNDTGFYTLHVIKSDLVNEEATGQFRVYPELPKPSISSNNSKPVEDKDAVAFTCEPETQDATYLWWVNNQSLPVSPRLQLSNGNRTLTLFNVTRNDTASYKCETQNPVSARRSDSVILNVLYGPDAPTISPLNTSYRSGENLNLSCHAASNPPAQYSWFVNGTFQQSTQELFIPNITVNNSGSYTCQAHNSDTGLNRTTVTTITVYAEPPKPFITSNNSNPVEDEDAVALTCEPEIQNTTYLWWVNNQSLPVSPRLQLSNDNRTLTLLSVTRNDVGPYECGIQNELSVDHSDPVILNVLYGPDDPTISPSYTYYRPGVNLSLSCHAASNPPAQYSWLIDGNIQQHTQELFISNITEKNSGLYTCQANNSASGHSRTTVKTITVSAELPKPSISSNNSKPVEDKDAVAFTCEPEAQNTTYLWWVNGQSLPVSPRLQLSNGNRTLTLFNVTRNDARAYVCGIQNSVSANRSDPVTLDVLYGPDTPIISPPDSSYLSGANLNLSCHSASNPSPQYSWRINGIPQQHTQVLFIAKITPNNNGTYACFVSNLATGRNNSIVKSITVSASGTSPGLSA
B2: TMPRSS5 (protein, UniProt Q9H3S3 1-457, looked up)
Transmembrane protease serine …: MSLMLDDQPPMEAQYAEEGPGPGIFRAEPGDQQHPISQAVCWRSMRRGCAVLGALGLLAGAGVGSWLLVLYLCPAASQPISGTLQDEEITLSCSEASAEEALLPALPKTVSFRINSEDFLLEAQVRDQPRWLLVCHEGWSPALGLQICWSLGHLRLTHHKGVNLTDIKLNSSQEFAQLSPRLGGFLEEAWQPRNNCTSGQVVSLRCSECGARPLASRIVGGQSVAPGRWPWQASVALGFRHTCGGSVLAPRWVVTAAHCMHSFRLARLSSWRVHAGLVSHSAVRPHQGALVERIIPHPLYSAQNHDYDVALLRLQTALNFSDTVGAVCLPAKEQHFPKGSRCWVSGWGHTHPSHTYSSDMLQDTVVPLFSTQLCNSSCVYSGALTPRMLCAGYLDGRADACQGDSGGPLVCPDGDTWRLVGVVSWGRGCAEPNHPGVYAKVAEFLDWIHDTAQDSLL
B3: IDUA (protein, UniProt P35475 28-653, looked up)
Alpha-L-iduronidase: APHLVHVDAARALWPLRRFWRSTGFCPPLPHSQADQYVLSWDQQLNLAYVGAVPHRGIKQVRTHWLLELVTTRGSTGRGLSYNFTHLDGYLDLLRENQLLPGFELMGSASGHFTDFEDKQQVFEWKDLVSSLARRYIGRYGLAHVSKWNFETWNEPDHHDFDNVSMTMQGFLNYYDACSEGLRAASPALRLGGPGDSFHTPPRSPLSWGLLRHCHDGTNFFTGEAGVRLDYISLHRKGARSSISILEQEKVVAQQIRQLFPKFADTPIYNDEADPLVGWSLPQPWRADVTYAAMVVKVIAQHQNLLLANTTSAFPYALLSNDNAFLSYHPHPFAQRTLTARFQVNNTRPPHVQLLRKPVLTAMGLLALLDEEQLWAEVSQAGTVLDSNHTVGVLASAHRPQGPADAWRAAVLIYASDDTRAHPNRSVAVTLRLRGVPPGPGLVYVTRYLDNGLCSPDGEWRRLGRPVFPTAEQFRRMRAAEDPVAAAPRPLPAGGRLTLRPALRLPSLLLVHVCARPEKPPGQVTRLRALPLTQGQLVLVWSDEHVGSKCLWTYEIQFSQDGKAYTPVSRKPSTFNLFVFSPDTGAVSGSYRVRALDYWARPGPFSDPVPYLEVPVPRGPPSPGNP
B4: NCF2 (protein, UniProt P19878 1-526, looked up)
Neutrophil cytosol factor 2: MSLVEAISLWNEGVLAADKKDWKGALDAFSAVQDPHSRICFNIGCMYTILKNMTEAEKAFTRSINRDKHLAVAYFQRGMLYYQTEKYDLAIKDLKEALIQLRGNQLIDYKILGLQFKLFACEVLYNIAFMYAKKEEWKKAEEQLALATSMKSEPRHSKIDKAMECVWKQKLYEPVVIPVGKLFRPNERQVAQLAKKDYLGKATVVASVVDQDSFSGFAPLQPQAAEPPPRPKTPEIFRALEGEAHRVLFGFVPETKEELQVMPGNIVFVLKKGNDNWATVMFNGQKGLVPCNYLEPVELRIHPQQQPQEESSPQSDIPAPPSSKAPGRPQLSPGQKQKEEPKEVKLSVPMPYTLKVHYKYTVVMKTQPGLPYSQVRDMVSKKLELRLEHTKLSYRPRDSNELVPLSEDSMKDAWGQVKNYCLTLWCENTVGDQGFPDEPKESEKADANNQTTEPQLKKGSQVEALFSYEATQPEDLEFQEGDIILVLSKVNEEWLEGECKGKVGIFPKVFVEDCATTDLESTRREV
B5: DAPP1 (protein, UniProt Q9UN19 1-280, looked up)
Dual adapter for …: MGRAELLEGKMSTQDPSDLWSRSDGEAELLQDLGWYHGNLTRHAAEALLLSNGCDGSYLLRDSNETTGLYSLSVRAKDSVKHFHVEYTGYSFKFGFNEFSSLKDFVKHFANQPLIGSETGTLMVLKHPYPRKVEEPSIYESVRVHTAMQTGRTEDDLVPTAPSLGTKEGYLTKQGGLVKTWKTRWFTLHRNELKYFKDQMSPEPIRILDLTECSAVQFDYSQERVNCFCLVFPFRTFYLCAKTGVEADEWIKILRWKLSQIRKQLNQGEGTIRSRSFIFK
B6: CXCL16 (protein, UniProt Q9H2A7 30-254, looked up)
C-X-C motif chemokine 16: NEGSVTGSCYCGKRISSDSPPSVQFMNRLRKHLRAYHRCLYYTRFQLLSWSVCGGNKDPWVQELMSCLDLKECGHAYSGIVAHQKHLLPTSPPISQASEGASSDIHTPAQMLLSTLQSTQRPTLPVGSLSSDKELTRPNETTIHTAGHSLAAGPEAGENQKQPEKNAGPTARTSATVPVLCLLAIIFILTAALSYVLCKRRRGQSPQSSPDLPVHYIPVAPDSNT
B7: CLUL1 (protein, UniProt Q15846 21-466, looked up)
Clusterin-like protein 1: APTWKDKTAISENLKSFSEVGEIDADEEVKKALTGIKQMKIMMERKEKEHTNLMSTLKKCREEKQEALKLLNEVQEHLEEEERLCRESLADSWGECRSCLENNCMRIYTTCQPSWSSVKNKIERFFRKIYQFLFPFHEDNEKDLPISEKLIEEDAQLTQMEDVFSQLTVDVNSLFNRSFNVFRQMQQEFDQTFQSHFISDTDLTEPYFFPAFSKEPMTKADLEQCWDIPNFFQLFCNFSVSIYESVSETITKMLKAIEDLPKQDKAPDHGGLISKMLPGQDRGLCGELDQNLSRCFKFHEKCQKCQAHLSEDCPDVPALHTELDEAIRLVNVSNQQYGQILQMTRKHLEDTAYLVEKMRGQFGWVSELANQAPETEIIFNSIQVVPRIHEGNISKQDETMMTDLSILPSSNFTLKIPLEESAESSNFIGYVVAKALQHFKEHFKTW
B8: SLITRK2 (protein, UniProt Q9H156 22-845, looked up)
SLIT and NTRK-like protein 2: RKTAKDICKIRCLCEEKENVLNINCENKGFTTVSLLQPPQYRIYQLFLNGNLLTRLYPNEFVNYSNAVTLHLGNNGLQEIRTGAFSGLKTLKRLHLNNNKLEILREDTFLGLESLEYLQADYNYISAIEAGAFSKLNKLKVLILNDNLLLSLPSNVFRFVLLTHLDLRGNRLKVMPFAGVLEHIGGIMEIQLEENPWNCTCDLLPLKAWLDTITVFVGEIVCETPFRLHGKDVTQLTRQDLCPRKSASDSSQRGSHADTHVQRLSPTMNPALNPTRAPKASRPPKMRNRPTPRVTVSKDRQSFGPIMVYQTKSPVPLTCPSSCVCTSQSSDNGLNVNCQERKFTNISDLQPKPTSPKKLYLTGNYLQTVYKNDLLEYSSLDLLHLGNNRIAVIQEGAFTNLTSLRRLYLNGNYLEVLYPSMFDGLQSLQYLYLEYNVIKEIKPLTFDALINLQLLFLNNNLLRSLPDNIFGGTALTRLNLRNNHFSHLPVKGVLDQLPAFIQIDLQENPWDCTCDIMGLKDWTEHANSPVIINEVTCESPAKHAGEILKFLGREAICPDSPNLSDGTVLSMNHNTDTPRSLSVSPSSYPELHTEVPLSVLILGLLVVFILSVCFGAGLFVFVLKRRKGVPSVPRNTNNLDVSSFQLQYGSYNTETHDKTDGHVYNYIPPPVGQMCQNPIYMQKEGDPVAYYRNLQEFSYSNLEEKKEEPATPAYTISATELLEKQATPREPELLYQNIAERVKELPSAGLVHYNFCTLPKRQFAPSYESRRQNQDRINKTVLYGTPRKCFVGQSKPNHPLLQAKPQSEPDYLEVLEKQTAISQL
B9: PRELP (protein, UniProt P51888 21-382, looked up)
Prolargin: QPTRRPRPGTGPGRRPRPRPRPTPSFPQPDEPAEPTDLPPPLPPGPPSIFPDCPRECYCPPDFPSALYCDSRNLRKVPVIPPRIHYLYLQNNFITELPVESFQNATGLRWINLDNNRIRKIDQRVLEKLPGLVFLYMEKNQLEEVPSALPRNLEQLRLSQNHISRIPPGVFSKLENLLLLDLQHNRLSDGVFKPDTFHGLKNLMQLNLAHNILRKMPPRVPTAIHQLYLDSNKIETIPNGYFKSFPNLAFIRLNYNKLTDRGLPKNSFNISNLLVLHLSHNRISSVPAINNRLEHLYLNNNSIEKINGTQICPNDLVAFHDFSSDLENVPHLRYLRLDGNYLKPPIPLDLMMCFRLLQSVVI
B10: VSIG2 (protein, UniProt Q96IQ7 24-327, looked up)
V-set and immunoglobulin …: VEVKVPTEPLSTPLGKTAELTCTYSTSVGDSFALEWSFVQPGKPISESHPILYFTNGHLYPTGSKSKRVSLLQNPPTVGVATLKLTDVHPSDTGTYLCQVNNPPDFYTNGLGLINLTVLVPPSNPLCSQSGQTSVGGSTALRCSSSEGAPKPVYNWVRLGTFPTPSPGSMVQDEVSGQLILTNLSLTSSGTYRCVATNQMGSASCELTLSVTEPSQGRVAGALIGVLLGVLLLSVAAFCLVRFQKERGKKPKETYGGSDLREDAIAPGISEHTCMRADSSKGFLERPSSASTVTTTKSKLPMVV
B11: SELP (protein, UniProt P16109 42-830, looked up)
P-selectin: WTYHYSTKAYSWNISRKYCQNRYTDLVAIQNKNEIDYLNKVLPYYSSYYWIGIRKNNKTWTWVGTKKALTNEAENWADNEPNNKRNNEDCVEIYIKSPSAPGKWNDEHCLKKKHALCYTASCQDMSCSKQGECLETIGNYTCSCYPGFYGPECEYVRECGELELPQHVLMNCSHPLGNFSFNSQCSFHCTDGYQVNGPSKLECLASGIWTNKPPQCLAAQCPPLKIPERGNMTCLHSAKAFQHQSSCSFSCEEGFALVGPEVVQCTASGVWTAPAPVCKAVQCQHLEAPSEGTMDCVHPLTAFAYGSSCKFECQPGYRVRGLDMLRCIDSGHWSAPLPTCEAISCEPLESPVHGSMDCSPSLRAFQYDTNCSFRCAEGFMLRGADIVRCDNLGQWTAPAPVCQALQCQDLPVPNEARVNCSHPFGAFRYQSVCSFTCNEGLLLVGASVLQCLATGNWNSVPPECQAIPCTPLLSPQNGTMTCVQPLGSSSYKSTCQFICDEGYSLSGPERLDCTRSGRWTDSPPMCEAIKCPELFAPEQGSLDCSDTRGEFNVGSTCHFSCDNGFKLEGPNNVECTTSGRWSATPPTCKGIASLPTPGVQCPALTTPGQGTMYCRHHPGTFGFNTTCYFGCNAGFTLIGDSTLSCRPSGQWTAVTPACRAVKCSELHVNKPIAMNCSNLWGNFSYGSICSFHCLEGQLLNGSAQTACQENGHWSTTVPTCQAGPLTIQEALTYFGGAVASTIGLIMGGTLLALLRKRFRQKDDGKCPLNPHSHLGTYGVFTNAAFDPSP

test system: plasma proteins; test: Plasma proteins modulated between baseline and day 28 in responders (CR, VGPR, PR; n = 19), Example 6 (Table 13); assay type: in vivo, human; conditions: plasma protein (OLINK NPX); responders (CR, VGPR, PR; n = 19); itacitinib 200 mg or 300 mg QD with corticosteroids; day 28 vs baseline
Procedure, shortened: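 Longitudinal comparison, day 28 versus baseline, with steroid-naive (N=10) and steroid-refractory (N=18) patients combined. Proteins measured by OLINK proximity extension, log2 normalized protein expression. Differences tested by t tests, ANOVA, Pearson correlation, P<0.05 significant.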

| Molecule | Fold Change, Increased Expression from Baseline to Day 28 | Fold Change, Decreased Expression from Baseline to Day 28 |
| --- | --- | --- |
| B1 | 1.6422 |  |
| B2 | 1.3307 |  |
| B3 |  | −1.3887 |
| B4 |  | −2.4951 |
| B5 |  | −1.3805 |
| B6 | 1.2028 |  |
| B7 | 1.3108 |  |
| B8 | 1.2986 |  |
| B9 | 1.1833 |  |
| B10 | 1.2163 |  |
| B11 |  | −1.9244 |
